The experiment addresses PIFtide (24 residue synthetic peptide encompassing the PDK1 binding site on PIF) (human). Briefly: method not stated.

Chain of PIFtide (24 residue synthetic peptide encompassing the PDK1 binding site on PIF) (human) (peptide, as listed by the source): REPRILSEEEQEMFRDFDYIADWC

Regarding “GST-PDK1[K115A] (from UniProt O15530 1-556) (enzyme)”, the fold decrease in affinity (against wild type PDK1) was 10 fold.

For the origin of these results see patent US20080009025A1, “PROTEIN KINASE REGULATION” (priority 1999, published 2008).
